For experiment [1] the following is noted: conversion of irinotecan by nonspecific carboxylesterases; cited from earlier work.
The test system of the next experiment is phospho-ERK. Kind of experiment: phospho-ERK ELISA in A431 cells. It is filed as cell-based, human.
The target in a further experiment is mouse EGFR (Mus musculus, UniProt Q01279). Nature of the experiment: Cross reactivity with mouse EGFR. The format is binding.
In another experiment the test system is phospho-EGFR. Kind of experiment: phospho-EGFR ELISA in A431 cells. The conditions noted are these: EGF stimulated. The format is cell-based, human. On the technique in general: ELISA stands for enzyme-linked immunosorbent assay.

Experimental for phospho-ERK: Cells are serum starved in 1% FBS medium with antibiotics and 2 mM L-glutamine for about 20 hours at 37° C. and 5% carbon dioxide. Cells are then preincubated with varying concentrations of anti-EGFR antibodies for 2 hrs, and then stimulated with human EGF ligand (50 ng/ml) (PeproTech, cat # AF-100-15) for 10 minutes at 37° C. and 5%/carbon dioxide. […] Lysates are either analyzed immediately by ELISA for ERK (a downstream effector of EGFR) and EGFR phosphorylation, or frozen at −80° C. until use.
The phospho-ERK ELISA is performed similarly to the phospho-EGFR ELISA with the following changes: Human pERK ELISA Duoset kit is purchased from R&D Systems (cat# DYC1018-5) and used as recommended by the manufacturer.
A431 cells were treated with a dilution series of antibody and phospho-ERK inhibition measured by ELISA.
Experiments were performed with rhEGF (PeproTech) dosed at a concentration of 50 ng/mL or 500 ng/mL.

For the molecule `CCc1c2c(nc3ccc(O)cc13)-c1cc3c(c(=O)n1C2)COC(=O)[C@]3(O)CC` [SN-38, 7-Ethyl-10-hydroxy-camptothecin], the “activity of metabolite relative to irinotecan” value in experiment [1] is given as 100-1000 fold.

B1: P1X: affinity matured anti-EGFR monoclonal antibody (Bin1) of parental ca; VH SEQ ID NO: 19, VL SEQ ID NO: 20 (antibody, V domains shown)
VH: MGFGLSWLFLVAILKGVQCQVQLVQSGAEVKKPGSSVKVSCKASGGTFSSYAISWVRQAPGQGLEWMGSIIPIFGTVNYAQKFQGRVTITADESTSTAYMELSSLRSEDTAVYYCARDPSVNLYWYFDLWGRGTLVTVSS
VL: MGTPAQLLFLLLLWLPDTTGDIQMTQSPSTLSASVGDRVTITCRASQSISSWWAWYQQKPGKAPKLLIYDASSLESGVPSRFSGSGSGTEFTLTISSLQPDDFATYYCQQYHAHPTTFGGGTKVEIK
As to B1, the “phospho-ERK inhibition with 80 nM EGF (in words)” value in the experiment on phospho-ERK (80 nM of EGF ligand) is on record as “partial”. In the experiment on phospho-ERK (EGF 50 ng/ml, dilution series), the “phospho-ERK inhibition (in words)” value is recorded as “dose-dependent inhibition of phospho-ERK activity”. The “cross reaction with (binding to) mouse EGFR” value with mouse EGFR is given as “cross reacts with (binds to) mouse EGFR”.

B2: P3X: affinity matured anti-EGFR monoclonal antibody (Bin3) of parental ch; VH SEQ ID NO: 23, VL SEQ ID NO: 24 (antibody, V domains shown)
VH: MGFGLSWLFLVAILKGVQCQVQLVQSGAEVKKPGASVKVSCKASGYAFTSYGINWVRQAPGQGLEWMGWISAYNGNTYYAQKLRGRVTMTTDTSTSTAYMELRSLRSDDTAVYYCARDLGGYGSGSVPFDPWGQGTLVTVSS
VL: MGTPAQLLFLLLLWLPDTTGEIVMTQSPATLSVSPGERATLSCRASQSVSSNLAWYQQKPGQAPRLLIYGASTRATGIPARFSGSGSGTEFTLTISSLQSEDFAVYYCQDYRTWPRRVFGGGTKVEIK
In the case of B2, in the experiment with phospho-EGFR, the “phospho-EGFR inhibition, single antibody (in words)” value is on record as “partial phospho-EGFR inhibition”.

The values are drawn from patent US10072299B2, “Antibodies against epidermal growth factor receptor (EGFR) and uses thereof” (Merrimack Pharmaceuticals, Inc., priority 2011, dated 2018).
